Key:
[1] = biological target: T1, MLO-Y4 cell surface proteins (Mus musculus, UniProt P04117); test: Crosslinking/co-immunoprecipitation/mass spectrometry (TMT quantitative proteomics) to identify irisin receptors; format: binding; conditions: co-precipitated protein Fabp4 (FABP4_MOUSE)
T1 construct: endogenous in cells; host or cells: MLO-Y4
T1 sequence (P04117 1-132): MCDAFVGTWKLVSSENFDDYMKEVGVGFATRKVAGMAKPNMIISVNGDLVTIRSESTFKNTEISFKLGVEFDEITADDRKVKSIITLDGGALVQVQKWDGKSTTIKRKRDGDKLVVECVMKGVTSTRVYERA
Summary of the method: (§1)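 Mouse MLO-Y4 cells were switched to serum-free FreeStyle medium for 4 h, chilled, then exposed to 10 nM His-tagged irisin (or adipsin as control) for 20 min. Cells were crosslinked with 1.5 mM DTSSP (30 min, ice), and bound proteins were pulled down on Ni-NTA and eluted with 250 mM imidazole. Eluates were separated by SDS-PAGE, trypsin-digested in gel, TMT 6-plex labelled and quantified by MS3-based LC-MS/MS on an Orbitrap Fusion Lumos.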

[2] = biological target: T2, MLO-Y4 cell surface proteins (Mus musculus, UniProt Q8K221); test: as above; format: binding; conditions: co-precipitated protein Arfip2 (ARFP2_MOUSE)
T2 construct: endogenous in cells; host or cells: MLO-Y4
T2 sequence (Q8K221 1-341): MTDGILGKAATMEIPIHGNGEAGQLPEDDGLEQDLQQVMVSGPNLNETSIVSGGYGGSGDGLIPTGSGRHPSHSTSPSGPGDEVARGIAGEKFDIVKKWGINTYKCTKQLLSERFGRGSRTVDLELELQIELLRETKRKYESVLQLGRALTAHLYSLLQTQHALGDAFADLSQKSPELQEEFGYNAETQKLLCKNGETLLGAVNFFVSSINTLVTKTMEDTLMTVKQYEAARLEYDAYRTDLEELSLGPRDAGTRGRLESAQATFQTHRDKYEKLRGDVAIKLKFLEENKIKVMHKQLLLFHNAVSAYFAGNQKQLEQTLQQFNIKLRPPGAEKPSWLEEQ
Summary of the method: as §1

Substance: adipsin
- TMT signal-to-noise ratio [1]: 746.54
- TMT signal-to-noise ratio [2]: 1092.57

— US20210063414A1, “METHODS FOR PREVENTING AND/OR TREATING BONE LOSS CONDITIONS BY MODULATING IRISIN” (Dana-Farber Cancer Institute, Inc., priority 2018, published 2021)
